The record followed here is patent CN116406375A (UNIV SHANGHAI TECHNOLOGY, dated 2023).

In one test the target is 野生型SARS-CoV-2假病毒的刺突Δ19 (SARS-CoV-2, UniProt P0DTC2 14-1254). Description: cell-based or functional assay.
Test [1] deals with SARS-CoV-2刺突N501Y+D614G假病毒的刺突Δ19 (SARS-CoV-2, UniProt P0DTC2 14-1254). Description: cell-based or functional assay.
Test [2] has as its target 真SARS-CoV-2英国变异株(B.1.1.7)病毒的刺突 (SARS-CoV-2). The test is described as follows: cell-based or functional assay.
In test [3] the target is SARS-CoV-2 K417N+E484K+N501Y+D614G假病毒的刺突Δ19 (SARS-CoV-2, UniProt P0DTC2 14-1254). The test is described as follows: cell-based or functional assay.
The target of test [4] is SARS-CoV-2 B.1.617.2假病毒的刺突Δ19 (SARS-CoV-2). The test is described as follows: cell-based or functional assay.
Another test has as its target T1, SARS-CoV-2 S-RBD (SARS-CoV-2, UniProt P0DTC2 319-541).
T1 construct: also called WT S-RBD; 野生型(WT)S-RBD
Description: BLI, biotinylated S-RBD on SA sensor, 1:1 Langmuir model. (BLI is a label-free optical method that tracks binding on a fibre tip over time.)

Another test deals with T2, K417N+E484K+N501Y RBD (SARS-CoV-2, UniProt P0DTC2 319-541).
T2 construct: also called B.1.351S-RBD; B.1.351的刺突RBD
Description: BLI, biotinylated B.1.351 S-RBD on SA sensor, 1:1 Langmuir model.

B1: S-E6 (antibody, V domains shown)
VH: QVTLRESGPGLVKPSETLSLTCAVSGGSLSSVNYYWSWIRQHPGKGLEWIGYIYYSGSTNYNPSLKSRVTMSLDTSKNQFSLKLSSVTAADTAVYYCATPGAIMGALHIWGQGTLVTVSS
VL: QAVLTQPSSASSTPGQRVIISCSGSSSNIGSNTVSWYQQVPGAAPKLLIYFDYRRPSGVPDRFSGTRSGTSASLGISGLQSEDEADYYCAAWDDSLSAWVFGRGTKLTVLG
notes: also called S-E6二聚体; 二聚体S-E6
With B1, in the test with 野生型SARS-CoV-2假病毒的刺突Δ19, the “NT50, 假病毒中和 (野生型PSV)” value was found to be 0.025 nM. In test [1], the “NT50, 假病毒中和 (N501Y+D614G PSV)” value turned out to be 0.021 nM. In addition, in test [2], the “NT50, 真病毒中和 (B.1.1.7)” value came to 1.15 nM. Also, the “NT50(B.1.351)” value in test [3] was 0.32 nM. For the same molecule, in test [4], the “NT50(B.1.617.2)” value is 0.065 nM.

B2: S-E6三聚体 (other)
heavy (part 1 of 2): QVTLRESGPGLVKPSETLSLTCAVSGGSLSSVNYYWSWIRQHPGKGLEWIGYIYYSGSTNYNPSLKSRVTMSLDTSKNQFSLKLSSVTAADTAVYYCATPGAIMGALHIWGQGTLVTVSS
heavy (part 2 of 2): GGGGSGGGGSGGGGSPGSGYIPEAPRDGQAYVRKDGEWVLLSTFLGHHHHHH
light: QAVLTQPSSASSTPGQRVIISCSGSSSNIGSNTVSWYQQVPGAAPKLLIYFDYRRPSGVPDRFSGTRSGTSASLGISGLQSEDEADYYCAAWDDSLSAWVFGRGTKLTVLG
notes: also called 三聚体S-E6
What is called Kd is the constant that tells how readily two partners part at equilibrium. A higher Kd goes with lower affinity. For B2, the “NT50(B.1.617.2)” value in test [4] was 0.007 nM. Besides, the Kd in the test with SARS-CoV-2 S-RBD was 0.0101 nM; with K417N+E484K+N501Y RBD, 0.58 nM.

B3: S-B8 (antibody, V domains shown)
VH: QVQLVQSGGGLIQPGGSLRLSCAASGFTVSLSHMNWVRQAPGKGLEWVSITYGDGNSDYADSVKGRFTISRDNSKNTLYLQMNSLRAEDTAVYYCAREYYYGMDVWGQGTTVTVSS
VL: not shown
notes: also called S-B8二聚体
In the case of B3, in test [1], the “NT50, 假病毒中和 (N501Y+D614G PSV)” value was determined as 0.53 nM. In addition, the “NT50(B.1.351)” value in test [3] is 1.2 nM. Also, in test [4], the “NT50(B.1.617.2)” value was found to be 0.37 nM.

B4: S-B8三聚体 (other)
heavy (part 1 of 2): QVQLVQSGGGLIQPGGSLRLSCAASGFTVSLSHMNWVRQAPGKGLEWVSITYGDGNSDYADSVKGRFTISRDNSKNTLYLQMNSLRAEDTAVYYCAREYYYGMDVWGQGTTVTVSS
heavy (part 2 of 2): GGGGSGGGGSGGGGSPGSGYIPEAPRDGQAYVRKDGEWVLLSTFLGHHHHHH
light: not shown
As for B4, the “NT50(B.1.351)” value in test [3] came to 0.35 nM. In test [4], the “NT50(B.1.617.2)” value is 0.15 nM.

B5: S-D4 (antibody, V domains shown)
VH: QVQLQESGGGVVQPGRSLRLSCEVSGFTFSDYGMHWVRQAPGKGLEWVAVIWSEGSTEYYADSVKGRFTISRDNSKDTLYLQMNSLRAEDTAVYYCARPGYPTSTDRSPAAAGARQYYYYGMDVWGQGTTVTVSS
VL: NFMLTQPHSVSESPGKTVTISCTRSGGSGAANYVQWYQQRPGSSPTTLIYEDSRRPPGVPDRFSGSVDTSSNSASLTISGLQTEDEADYYCQSYDSSNHVVFGGGTKLTVLG
notes: also called S-D4二聚体; S-D4 IgG4
Take B5: the “NT50, 假病毒中和 (野生型PSV)” value with 野生型SARS-CoV-2假病毒的刺突Δ19 came out at 0.48 nM. Also, in test [1], the “NT50, 假病毒中和 (N501Y+D614G PSV)” value is 0.042 nM. The “NT50, 真病毒中和 (B.1.1.7)” value in test [2] came out at 1.88 nM. For the same molecule, in test [3], the “NT50(B.1.351)” value was found to be 0.66 nM. In addition, in test [4], the “NT50(B.1.617.2)” value was 0.24 nM.
